The record followed here is the supplement of paper PMC7877785.

The data set is described as follows: self-splicing fitness, log relative to wild type (ln ratio); higher = more splicing; Tetrahymena group I intron in knt gene, E. coli kanamycin selection, DiMSum; sequences stand for … in CUCUCU…GGAGGGAAAAGUUAUCAGGCAUGCACCUGGUAGCUAGUCUUUAAACCAAUAGAUUGCAUCGGUUUAAAAGGCAAGACCGUCAAAUUGCGGGAAAGGGGUCAACAGCCGUUCAGUACCAAGUCUCAGGGGAAACUUUGAGAUGGCCUUGCAAAGGGUAUGGUAAUAAGCUGACGGACAUGGUCCUAACCACGCAGCCAAGUCCUAAGUCAACAGAUCUUCUGUUGAUAUGGAUGCAGUUCACAGACUAAAUGUCGGUCGGGGAAGAUGUAUUCUUCUCAUAAGAUAUAGUCGGACCUCUCCUUAAUGGGAGCUAGCGGAUGAAGUGAUGCAACACUGGAGCCGCUGGGAACUAAUUUGUAUGCGAAAGUAUAUUGAUUAGUUUUGGAGUACUCGUGGUCG
Put shortly:
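A randomised library covering all eight P1ex-region intron nucleotides was built with the intron in the knt kanamycin-resistance gene on pET-22b(+) and held in E. coli BL21(DE3). Cells were grown overnight at 37°C or 30°C on LB agar, with or without 25 μg/mL kanamycin, plus 100 μg/mL carbenicillin, 50 μM IPTG and 0.2% rhamnose, and pooled colonies were amplicon-sequenced on an Illumina HiSeq 2500. DiMSum fitness is the error-weighted combination of wild-type-normalised replicate fold changes, kanamycin versus none.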

± gives the uncertainty stated by the source.

Turning to CCGAAGCAAUAUUACGAUGG, the “self-splicing fitness (ln)” value reads like this: (30 °C) -3.47 ± 0.19; (37 °C) -3.7 ± 0.2.

In the case of CCGAAGCAAUAUUACGCACC, the “self-splicing fitness (ln)” value is, setting by setting: (30 °C) -2.46 ± 0.19; (37 °C) -2.25 ± 0.5. For CCGAAGCAAUAUUACGCACG the same measures were -1.19 ± 0.074 and -0.509 ± 0.092. Turning to CCGAAGCAAUAUUACGCGCU, the “self-splicing fitness (ln)” value (37 °C) is -2.26 ± 0.42.

CCGAAGCAAUAUUACGCGGC: the “self-splicing fitness (ln)” value (30 °C) is -3.55 ± 0.28 and the “self-splicing fitness (ln)” value (37 °C) was -2.27 ± 0.3. In the case of CCGAAGCAAUAUUACGCUCC, the “self-splicing fitness (ln)” value (30 °C) was -2.86 ± 0.44. Regarding CCGAAGCAAUAUUACGCUUC, the “self-splicing fitness (ln)” value by setting is: (30 °C) -3.15 ± 0.27; (37 °C) -3.2 ± 0.34. For CCGAAGCAAUAUUACGGAGU the same measures were -1.88 ± 0.16 and -2.98 ± 0.25. For CCGAAGCAAUAUUACGGGAU the same measures were -3.69 ± 0.26 and -2.47 ± 0.22. For the sequence CCGAAGCAAUAUUACGGGCG, the “self-splicing fitness (ln)” value (30 °C) was -0.886 ± 0.066 and the “self-splicing fitness (ln)” value (37 °C) was -0.235 ± 0.074.

Consider CCGAAGCAAUAUUACGGUAG, for which the “self-splicing fitness (ln)” value (30 °C) is -2.87 ± 0.11 and the “self-splicing fitness (ln)” value (37 °C) is -1.3 ± 0.095.

As to CCGAAGCAAUAUUACGUAAU, the “self-splicing fitness (ln)” value (30 °C) was -3.37 ± 0.24 and the “self-splicing fitness (ln)” value (37 °C) was -2.54 ± 0.18.

Turning to CCGAAGCAAUAUUACGUACA, the “self-splicing fitness (ln)” value (30 °C) was -3.19 ± 0.43 and the “self-splicing fitness (ln)” value (37 °C) was -1.75 ± 0.34. On the same counts, the results for CCGAAGCAAUAUUACGUCCG are -0.46 ± 0.11 and -0.429 ± 0.095. For CCGAAGCAAUAUUACGUCGU the same measures were -1.94 ± 0.074 and -0.687 ± 0.077. As for CCGCAGCAAUAUUACGCACA, the “self-splicing fitness (ln)” value is -2.51 ± 0.19 (30 °C) and -1.48 ± 0.17 (37 °C). On the same counts, the results for CCGCAGCAAUAUUACGCAGC are -3.86 ± 0.28 and -1.62 ± 0.19.

CCGCAGCAAUAUUACGCGGC: the “self-splicing fitness (ln)” value (30 °C) was -4.42 ± 0.42 and the “self-splicing fitness (ln)” value (37 °C) was -2.55 ± 0.29.

For CCGCAGCAAUAUUACGGAAU, the “self-splicing fitness (ln)” value is, setting by setting: (30 °C) -4.02 ± 0.25; (37 °C) -2.89 ± 0.34. On the same counts, the results for CCGCAGCAAUAUUACGGGCA are -2.72 ± 0.17 and -2.43 ± 0.18. In the case of CCGCAGCAAUAUUACGGGGC, the “self-splicing fitness (ln)” value runs as follows: (30 °C) -3.25 ± 0.24; (37 °C) -2.21 ± 0.28. For CCGCAGCAAUAUUACGGGGU the same measures were -3.54 ± 0.14 and -2.21 ± 0.13. Regarding CCGCAGCAAUAUUACGUCUG, the “self-splicing fitness (ln)” value is, setting by setting: (30 °C) -3.34 ± 0.17; (37 °C) -3.13 ± 0.18. For CCGCAGCAAUAUUACGUGGU the same measures were -3.29 ± 0.13 and -2.25 ± 0.13. Consider CCGCAGCAAUAUUACGUUUC, for which the “self-splicing fitness (ln)” value is -3.08 ± 0.31 (30 °C) and -2.93 ± 0.29 (37 °C). For CCGGAGCAAUAUUACGAAGU the same measures were -4.05 ± 0.26 and -1.53 ± 0.23. For CCGGAGCAAUAUUACGAGCA, the “self-splicing fitness (ln)” value (37 °C) was -0.395 ± 0.25. As to CCGGAGCAAUAUUACGCAAC, the “self-splicing fitness (ln)” value was -1.66 ± 0.4 (30 °C) and -2.92 ± 0.47 (37 °C).

On to CCGGAGCAAUAUUACGCAGC, for which the “self-splicing fitness (ln)” value (37 °C) was -2.52 ± 0.37. For CCGGAGCAAUAUUACGCCCA, the “self-splicing fitness (ln)” value (30 °C) was -3.21 ± 0.32 and the “self-splicing fitness (ln)” value (37 °C) was -2.06 ± 0.43. On the same counts, the results for CCGGAGCAAUAUUACGCGUU are -2.5 ± 0.28 and -2.28 ± 0.24. As to CCGGAGCAAUAUUACGCUUU, the “self-splicing fitness (ln)” value runs as follows: (30 °C) -4.14 ± 0.3; (37 °C) -2.47 ± 0.17. For CCGGAGCAAUAUUACGGCCU the same measures were -4.41 ± 0.28 and -3.79 ± 0.23. For CCGGAGCAAUAUUACGGGAG the same measures were -3.98 ± 0.27 and -2.13 ± 0.26.

For the sequence CCGGAGCAAUAUUACGGGGA, the “self-splicing fitness (ln)” value (30 °C) was -2.97 ± 0.2 and the “self-splicing fitness (ln)” value (37 °C) is -2.73 ± 0.3.

CCGGAGCAAUAUUACGGUCA: the “self-splicing fitness (ln)” value (30 °C) is -4.22 ± 0.47. Regarding CCGGAGCAAUAUUACGGUGU, the “self-splicing fitness (ln)” value (30 °C) is -3.21 ± 0.16 and the “self-splicing fitness (ln)” value (37 °C) is -2.13 ± 0.19. For CCGGAGCAAUAUUACGGUUU the same measures were -3.33 ± 0.25 and -2.55 ± 0.18. On the same counts, the results for CCGGAGCAAUAUUACGUAAU are -3.95 ± 0.15 and -3.36 ± 0.23.
